The text below walks through data of the supplement of paper PMC9170038.

This data set relates to K4 kissing-loop RNA reporter. Nature of the data set: apparent KD of K4 kissing-loop reporter; higher = weaker reporter binding. To be noted: Eterna round: R107. Here is the method: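 RNA-MaP round R107: designed RNA switches with theophylline, tryptophan, arginine or FMN aptamers are transcribed on-chip within common flanks. They are titrated with a labelled K4 kissing-loop RNA reporter in RNA-MaP buffer (100 mM Tris pH 7.5, 80 mM KCl, 4 mM MgCl2), without ligand or with the indicated ligand. Median apparent KD per design.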

The mark [1] stands for this setting: input ligand: theophylline 20 uM.
[2] abbreviates: input ligand: tryptophan 2.4 mM.
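Further: bound reporter read as fluorescence of individual clusters on recovered sequencing chips by microscopy, with normalized cluster intensities fitted with a binding model.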

As for “GUUAAUAGUAGUGAUGUUACAAUAGUUUGUGAGGAUAUCCCGAAAGGGAGAAGGCACAAACAAAUAGAUUCUCACAAAUAUUUAC [FMN A exclusion]”, the “apparent KD of K4 kissing-loop reporter” value is, setting by setting: (input ligand: FMN 200 uM) 191 nM; (input ligand: arginine 13.2 mM) 185 nM; (input ligand: none) 243 nM; under setting [1], 238 nM; under setting [2], 146 nM.
On to “UAUAUAGUGACGGCCGCCACUAUAGUAAUGUUUUUGUUAGAGUGAUGUUUUGUUUUUUAAUUUUAUAGGACCGGGUUAUAUGUUA [llpmullin]”, for which the “apparent KD of K4 kissing-loop reporter” value runs as follows: (input ligand: FMN 200 uM) 360 nM; (input ligand: arginine 13.2 mM) 218 nM; (input ligand: none) 374 nM; under setting [1], 376 nM; under setting [2], 240 nM.
For “UGAUAGGACAGAAGGAGCGGUAGUGAUGUUACCAAAAGGAUAAGGUGUCAAAAGACACCCUACCAGGUAGGUCGCUGUCCUAUCU”, in that order: 124 nM, 112 nM, 107 nM, 85.1 nM and 109 nM.
In the case of “GACUCUCUCGUCAGGAAGACGCACUCAGCCAAGGAUAUUAUGUUUUUAAGAAGGUGGACUUAUGCCAGUGAUGUUGGCAGAUACG [theeternabot_sameState_KL_FMN_A_29]”, the “apparent KD of K4 kissing-loop reporter” value reads like this: (input ligand: FMN 200 uM) 50.6 nM; (input ligand: arginine 13.2 mM) 86.1 nM; (input ligand: none) 67.6 nM; under setting [1], 99.9 nM; under setting [2], 57.1 nM.
As for “UAAGAGGACCACUGCGAGAGUCCUCGAAUACGAGGACCGGUACGGCCGCCACUCGAUAAUUUGUAGUGAUGUUGCAAGUAAGAAU [BrourdMod 7 - Jieux - Same State Tryptophan A]”, the “apparent KD of K4 kissing-loop reporter” value stood at 50.3 nM (input ligand: FMN 200 uM); 64.5 nM (input ligand: arginine 13.2 mM); 42.1 nM (input ligand: none); 61.9 nM under setting [1]; 31.8 nM under setting [2].
In the case of “GCCGUACGCAUGGAUACCAGAGAUGUUAAUCUCGAUGCCAGUGAUGUUGGCUUUAGCAUACUCCCUUGGCAGCCAUGCGUACGGC”, the “apparent KD of K4 kissing-loop reporter” value is 312 nM (input ligand: FMN 200 uM); 241 nM (input ligand: arginine 13.2 mM); 292 nM (input ligand: none); 186 nM under setting [1]; 267 nM under setting [2].
“AAGCAUUCUUCGGAAUGCAGACCCGCUGAGGAGGAUAUGACGAAAGUCAGAAGGUUUCAGUGAUGUUGAGGCCUCCUCAAUGGUC [whbob_Ex_FMNA__2th182]”: the “apparent KD of K4 kissing-loop reporter” value stood at 305 nM (input ligand: FMN 200 uM); 256 nM (input ligand: arginine 13.2 mM); 293 nM (input ligand: none); 285 nM under setting [1]; 291 nM under setting [2].
In the case of “CGUACGGUUUCUUUCUUUCCGUACGAGUGCCGAGGACCGGUACGGCCGCCACUCGCUACAGCCUAGUGAUGUUAGGCGAUUCUUU”, the “apparent KD of K4 kissing-loop reporter” value is, setting by setting: (input ligand: FMN 200 uM) 129 nM; (input ligand: arginine 13.2 mM) 117 nM; (input ligand: none) 125 nM; under setting [1], 163 nM; under setting [2], 102 nM.
For “CACCAUGAAUUCUCUAGGAGUGAUGUUUUUCGAGGACCGGUACGGCCGCCACUCGGACGAGGACCCUGGGAGCGGCGAAGCGGCU [nigmullin]”, in that order: 235 nM, 104 nM, 238 nM, 246 nM and 150 nM.
Turning to “GUAGACGUACCUUCAGUGAUGUUGAAGGAUACCAGAUGUUACCACAUCCCUUGGCAGCCUUGGGAUAACAGUGAGUUGGAAUAUG [Usrite]”, the “apparent KD of K4 kissing-loop reporter” value reads like this: (input ligand: FMN 200 uM) 182 nM; (input ligand: arginine 13.2 mM) 137 nM; (input ligand: none) 172 nM; under setting [1], 156 nM; under setting [2], 150 nM.
In the case of “ACACUAUCGUCAUAGACGGUAGUGAAAUGUGAGGAUAUGAGUGAUGUUAGAAGGCACAAAGACUGUAUCGAAUAGAUACAGUCAA [FmnA 6 #K4BetweenAptamer #OpenEnded]”, the “apparent KD of K4 kissing-loop reporter” value (input ligand: FMN 200 uM) was 558 nM; the “apparent KD of K4 kissing-loop reporter” value (input ligand: arginine 13.2 mM) worked out at 96.5 nM; the “apparent KD of K4 kissing-loop reporter” value (input ligand: none) stood at 139 nM; the “apparent KD of K4 kissing-loop reporter” value under setting [1] was 127 nM; the “apparent KD of K4 kissing-loop reporter” value under setting [2] worked out at 120 nM.
For “AACUGUCAAGGACAACAUUACUGCAGUGAUACCAGCAUCGAAAGAUGCCCUUGGCAGCACUAACUUGCAGUGAUGUUGCAAGUAA [BrourdMod 4 - Jieux - Exclusion - Theophylline A]”, in that order: 313 nM, 245 nM, 256 nM, 225 nM and 264 nM.
The matching figures for “AGGUUUUGAUUAGGAUAUGCACUGACGACGAGAAUAUAGUGAUGUUAUAUACUACGAAUUAGUAGAGUAGAAGGGAUUGAGGUUU [SSFMNB.Y]”: 344 nM, 265 nM, 330 nM, 322 nM and 245 nM.
As to “ACACGUGUGGCAGGAUAUCGGGCUGUGGAUCGGCUGGUUGCUUAUUCUCGACCAGUGAUGUUGGUACGAGAAGGGCUACCCAGAA [Diorce]”, the “apparent KD of K4 kissing-loop reporter” value (input ligand: FMN 200 uM) was 149 nM; the “apparent KD of K4 kissing-loop reporter” value (input ligand: arginine 13.2 mM) worked out at 113 nM; the “apparent KD of K4 kissing-loop reporter” value (input ligand: none) worked out at 114 nM; the “apparent KD of K4 kissing-loop reporter” value under setting [1] is 102 nM; the “apparent KD of K4 kissing-loop reporter” value under setting [2] is 123 nM.
For the sequence “UGAUAGGACAGAAGGAGCGGGAGUGAUGUUCCCAAAAGGGUAAGGUGUCAAAAGACACCCUUCCAGGUAGGUCGCUGUCCUAUCU”, the “apparent KD of K4 kissing-loop reporter” value runs as follows: (input ligand: FMN 200 uM) 97.7 nM; (input ligand: arginine 13.2 mM) 105 nM; (input ligand: none) 97.5 nM; under setting [1], 102 nM; under setting [2], 83.9 nM.
With “ACCUAGUAGACAGGAUAUCACGAUGACAGUGAUGUUGUCAUCAUCGAUUUGAGGAAACUCAGAUCGUGAGAAGGGUCUAACGACU [FMN B SS t7a]”, the “apparent KD of K4 kissing-loop reporter” value (input ligand: FMN 200 uM) stood at 147 nM; the “apparent KD of K4 kissing-loop reporter” value (input ligand: arginine 13.2 mM) was found to be 173 nM; the “apparent KD of K4 kissing-loop reporter” value (input ligand: none) amounted to 204 nM; the “apparent KD of K4 kissing-loop reporter” value under setting [1] stood at 168 nM; the “apparent KD of K4 kissing-loop reporter” value under setting [2] was 190 nM.
On to “AAGCAGUCACUCGAAGCCAUCGAAGAUGGGCGAGGACCGGUACGGCCGCCACUCGGAGUGAUGUUCCGAAGACUGCAAAAUAAAA”, for which the “apparent KD of K4 kissing-loop reporter” value worked out at 512 nM (input ligand: FMN 200 uM); 669 nM (input ligand: arginine 13.2 mM); 498 nM (input ligand: none); 508 nM under setting [1]; 567 nM under setting [2].
Take “CUUGUACAUGCCGAGGUAGGUGCGGGUUAGCGAGGACCGGUACGGCCGCCACUCGCCAAGUGAUGUUUGGUCCUUUGGAUCGGCA”: the “apparent KD of K4 kissing-loop reporter” value is, setting by setting: (input ligand: FMN 200 uM) 1220 nM; (input ligand: arginine 13.2 mM) 453 nM; (input ligand: none) 366 nM; under setting [1], 690 nM; under setting [2], 183 nM.
